From patent US20160090427A1 (SAMSUNG ELECTRONICS, published 2016)
Each block holds one binder with its values, some of them ahead of it.

Columns and labels:
VEGF (R&D systems) = VEGF (R&D systems) (UniProt P15692-4 27-191, limits assumed); assay: SPR (Biacore T100), CM5 chip, VEGF; format unclear in the text
Description: An examination on whether the 8 anti-c-Met/anti-VEGF bispecific antibodies prepared in Example 2 maintains binding affinity to VEGF was conducted using Biacore T100(GE). VEGF (R&D systems) immobilized on the surface of CM5 chip (#BR-1005-30, GE) by amino coupling according to the manufacturer's instructions. About 90˜120 RU of the anti-c-Met/anti-VEGF bispecific antibody was captured, and […] was injected thereto at various concentrations. Then, a solution containing 1M NaCl and 5 mM NaOH was injected thereto to regenerate the surface. The obtained data were fitted using BlAevaluation software (GE Healthcare, Biacore T100 evaluation software), to measure the binding affinity to VEGF.

[1] = target: T1, human c-Met/Fc fusion protein (R&D Systems) (human, UniProt P08581 25-932); assay: SPR (Biacore T100), bispecific captured by human Fab binder on CM5 chip, c-Met-Fc injected
T1 construct: Bought reagent; also called c-Met-Fc (#358-MT/CF, R&D Systems); human c-Met/Fc protein; not shown: Fc part of the bought fusion protein
Description: An examination on whether the anti-c-Met/anti-VEGF bispecific antibody maintains binding affinity to c-Met was conducted using Biacore T100(GE). A human Fab binding agent (GE Healthcare) was immobilized onto a CM5 chip (#BR-1005-30, GE) according to the manufacturer's instructions. About 90˜120 RU of the anti-c-Met/anti-VEGF bispecific antibody was captured, and c-Met-Fc (#358-MT/CF, R&D Systems) was injected thereto at various concentrations. Then, 10 mM Glycine-HCl (pH 2.1) solution was injected thereto to regenerate the surface. The obtained data were fitted using BlAevaluation software (GE Healthcare, Biacore T100 evaluation software), to measure the binding affinity to c-Met.

T1 sequence (P08581 25-932 limits assumed): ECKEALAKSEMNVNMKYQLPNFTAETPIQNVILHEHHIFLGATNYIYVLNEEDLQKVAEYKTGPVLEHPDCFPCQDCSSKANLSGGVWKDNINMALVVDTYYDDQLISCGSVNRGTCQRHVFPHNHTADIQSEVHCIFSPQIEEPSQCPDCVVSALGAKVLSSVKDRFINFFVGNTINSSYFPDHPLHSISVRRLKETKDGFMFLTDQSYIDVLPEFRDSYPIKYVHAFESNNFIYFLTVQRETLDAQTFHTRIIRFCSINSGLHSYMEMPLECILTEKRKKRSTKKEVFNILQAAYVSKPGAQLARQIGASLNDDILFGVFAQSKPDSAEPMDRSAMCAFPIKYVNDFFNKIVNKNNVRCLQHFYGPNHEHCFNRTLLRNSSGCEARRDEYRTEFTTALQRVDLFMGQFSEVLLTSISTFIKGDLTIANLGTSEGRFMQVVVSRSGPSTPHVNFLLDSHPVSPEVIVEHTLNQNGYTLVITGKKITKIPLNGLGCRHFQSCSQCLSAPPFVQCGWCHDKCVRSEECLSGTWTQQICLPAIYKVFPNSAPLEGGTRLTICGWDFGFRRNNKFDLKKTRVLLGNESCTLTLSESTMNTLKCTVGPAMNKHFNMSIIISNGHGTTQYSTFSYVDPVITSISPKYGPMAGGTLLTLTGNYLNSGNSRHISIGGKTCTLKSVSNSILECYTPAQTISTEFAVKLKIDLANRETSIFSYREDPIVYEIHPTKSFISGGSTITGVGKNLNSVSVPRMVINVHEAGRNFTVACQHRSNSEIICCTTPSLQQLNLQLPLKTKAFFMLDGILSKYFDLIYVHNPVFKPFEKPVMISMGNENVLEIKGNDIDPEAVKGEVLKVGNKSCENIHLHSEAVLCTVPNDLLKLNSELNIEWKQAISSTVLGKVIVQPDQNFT
Sequence of VEGF (R&D systems) (P15692 other isoform, or with tags, fused parts or gaps limits assumed): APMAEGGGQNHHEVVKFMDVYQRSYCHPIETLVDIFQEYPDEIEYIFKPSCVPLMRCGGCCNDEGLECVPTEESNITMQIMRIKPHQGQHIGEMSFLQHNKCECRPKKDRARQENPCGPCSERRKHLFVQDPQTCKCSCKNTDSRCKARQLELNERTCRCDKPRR

B1: MV-15 anti-c-Met/anti-VEGF bispecific antibody (bispecific antibody, human IgG2, kappa)
heavy: EVQLVESGGGLVQPGGSLRLSCAASGFTFTDYYMSWVRQAPGKGLEWLGFIRNKANGYTTEYSASVKGRFTISRDNSKNTLYLQMNSLRAEDTAVYYCARDNWFAYWGQGTLVTVSSASTKGPSVFPLAPCSRSTSESTAALGCLVKDYFPEPVTVSWNSGALTSGVHTFPAVLQSSGLYSLSSVVTVPSSNFGTQTYTCNVDHKPSNTKVDKTVERKCCVECPPCPAPPVAGPSVFLFPPKPKDTLMISRTPEVTCVVVDVSHEDPEVQFNWYVDGVEVHNAKTKPREEQFNSTFRVVSVLTVVHQDWLNGKEYKCKVSNKGLPAPIEKTISKTKGQPREPQVYTLPPSREEMTKNQVSLTCLVKGFYPSDIAVEWESNGQPENNYKTTPPMLDSDGSFFLYSKLTVDKSRWQQGNVFSCSVMHEALHNHYTQKSLSLSPGKGGGGSGGGGSEVQLLESGGGLVQPGGSLRLSCAASGFTFSGYAMSWVRQAPGKGLEWVSSIYSSSGSKYYADSVKGRFTISRDNSKNTLYLQMNSLRAEDTAVYYCARASSTCTRTWCSYDDAMDVWGQGTLVTVSSGGGGSGGGGSGGGGSQSVLTQPPSASGTPGQRVTISCTGSSSNIGNNAVTWYQQLPGTAPKLLIYDDSHRPSGVPDRFSGSKSGTSASLAISGLRSEDEADYYCGTWDYSLSGYVFGGGTKLTVLG
light: DIQMTQSPSSLSASVGDRVTITCKSSQSLLASGNQNNYLAWYQQKPGKAPKMLIIWASTRVSGVPSRFSGSGSGTDFTLTISSLQPEDFATYYCQQSYSRPYTFGQGTKVEIKRTVAAPSVFIFPPSDEQLKSGTASVVCLLNNFYPREAKVQWKVDNALQSGNSQESVTEQDSKDSTYSLSSTLTLSKADYEKHKVYACEVTHQGLSSPVTKSFNRGEC
notes: This is an inference
Kd (VEGF (R&D systems)): 6.83 nM | Kd [1]: 0.1 nM

B2: MV-16 anti-c-Met/anti-VEGF bispecific antibody (bispecific antibody, human IgG2, kappa)
heavy: EVQLVESGGGLVQPGGSLRLSCAASGFTFTDYYMSWVRQAPGKGLEWLGFIRNKANGYTTEYSASVKGRFTISRDNSKNTLYLQMNSLRAEDTAVYYCARDNWFAYWGQGTLVTVSSASTKGPSVFPLAPCSRSTSESTAALGCLVKDYFPEPVTVSWNSGALTSGVHTFPAVLQSSGLYSLSSVVTVPSSNFGTQTYTCNVDHKPSNTKVDKTVERKCCVECPPCPAPPVAGPSVFLFPPKPKDTLMISRTPEVTCVVVDVSHEDPEVQFNWYVDGVEVHNAKTKPREEQFNSTFRVVSVLTVVHQDWLNGKEYKCKVSNKGLPAPIEKTISKTKGQPREPQVYTLPPSREEMTKNQVSLTCLVKGFYPSDIAVEWESNGQPENNYKTTPPMLDSDGSFFLYSKLTVDKSRWQQGNVFSCSVMHEALHNHYTQKSLSLSPGKGGGGSGGGGSEVQLLESGGGLVQTGGSLRLSCAASGFTFSDYAMSWVRQAPGKGLEWVSSIYPGSGSKYYADSVKGRFAISRDNSKNTLYLQMNSLRAEDTAVYYCARDAWFRGHNVFDYWGQGTLVTVSSGGGGSGGGGSGGGGSQSVLTQPPSASGTPGQRVTISCTGSSSNIGSNNVTWYQQLPGTAPKLLIYSDSHRPSGVPDRFSGSKSGTSASLAISGLQSEDEADYYCGSWDYSLSAYVFGGGTKLTVLG
light: B1 light
Kd (VEGF (R&D systems)): 14.8 nM | Kd [1]: 0.21 nM

B5: MV-21 anti-c-Met/anti-VEGF bispecific antibody (bispecific antibody, human IgG2, kappa)
heavy: EVQLVESGGGLVQPGGSLRLSCAASGFTFTDYYMSWVRQAPGKGLEWLGFIRNKANGYTTEYSASVKGRFTISRDNSKNTLYLQMNSLRAEDTAVYYCARDNWFAYWGQGTLVTVSSASTKGPSVFPLAPCSRSTSESTAALGCLVKDYFPEPVTVSWNSGALTSGVHTFPAVLQSSGLYSLSSVVTVPSSNFGTQTYTCNVDHKPSNTKVDKTVERKCCVECPPCPAPPVAGPSVFLFPPKPKDTLMISRTPEVTCVVVDVSHEDPEVQFNWYVDGVEVHNAKTKPREEQFNSTFRVVSVLTVVHQDWLNGKEYKCKVSNKGLPAPIEKTISKTKGQPREPQVYTLPPSREEMTKNQVSLTCLVKGFYPSDIAVEWESNGQPENNYKTTPPMLDSDGSFFLYSKLTVDKSRWQQGNVFSCSVMHEALHNHYTQKSLSLSPGKGGGGSGGGGSEVQLLESGGGLVQPGGSLRLSCAASGFTFSGYAMSWVRQAPGKGLEWVSGISHDGGNTYYADSVKGRFTISRDNSKNTLYLQMNSLRAEDTAVYYCARDRRKGPSTEFDYWGQGTLVTVSSGGGGSGGGGSGGGGSQSVLTQPPSLSGTPGQRVTISCTGSSSNIGSNSVSWYQQLPGTAPKLLIYDDNNRPSGVPDRFSGSKSGTSASLAISGLRSEDEADYYCGAWDYSLSAYVFGGGTKLTVLG
light: B1 light
Kd (VEGF (R&D systems)): 8.27 nM | Kd [1]: 0.04 nM

B6: MV-17 anti-c-Met/anti-VEGF bispecific antibody (bispecific antibody, human IgG2, kappa)
heavy: EVQLVESGGGLVQPGGSLRLSCAASGFTFTDYYMSWVRQAPGKGLEWLGFIRNKANGYTTEYSASVKGRFTISRDNSKNTLYLQMNSLRAEDTAVYYCARDNWFAYWGQGTLVTVSSASTKGPSVFPLAPCSRSTSESTAALGCLVKDYFPEPVTVSWNSGALTSGVHTFPAVLQSSGLYSLSSVVTVPSSNFGTQTYTCNVDHKPSNTKVDKTVERKCCVECPPCPAPPVAGPSVFLFPPKPKDTLMISRTPEVTCVVVDVSHEDPEVQFNWYVDGVEVHNAKTKPREEQFNSTFRVVSVLTVVHQDWLNGKEYKCKVSNKGLPAPIEKTISKTKGQPREPQVYTLPPSREEMTKNQVSLTCLVKGFYPSDIAVEWESNGQPENNYKTTPPMLDSDGSFFLYSKLTVDKSRWQQGNVFSCSVMHEALHNHYTQKSLSLSPGKGGGGSGGGGSEVQLLESGGGLVQPGGSLRLSCAASGFTFSNYDMSWVRQAPGKGLEWVSGIYPNGGSKYYADSVKGRFTISRDNSKNTLYLQMNSLRAEDTAVYYCARALRQCQRYWCSYADGMDVWGQGTLVTVSSGGGGSGGGGSGGGGSQSVLTQPPSASGTPGQRVTISCTGSSSNIGSNYVSWYQQLPGTAPKLLIYADSQRPSGVPDRFSGSKSGTSASLAISGLRSEDEADYYCGTWDYSLSGYVLGGGTKLTVLG
light: B1 light
Kd (VEGF (R&D systems)): 5.76 nM | Kd [1]: 0.09 nM

Now those with a lower Kd (VEGF (R&D systems)), led by results:

Kd (VEGF (R&D systems)): 4.23 nM | Kd [1]: 0.05 nM
B3: MV-18 anti-c-Met/anti-VEGF bispecific antibody (bispecific antibody, human IgG2, kappa)
heavy: EVQLVESGGGLVQPGGSLRLSCAASGFTFTDYYMSWVRQAPGKGLEWLGFIRNKANGYTTEYSASVKGRFTISRDNSKNTLYLQMNSLRAEDTAVYYCARDNWFAYWGQGTLVTVSSASTKGPSVFPLAPCSRSTSESTAALGCLVKDYFPEPVTVSWNSGALTSGVHTFPAVLQSSGLYSLSSVVTVPSSNFGTQTYTCNVDHKPSNTKVDKTVERKCCVECPPCPAPPVAGPSVFLFPPKPKDTLMISRTPEVTCVVVDVSHEDPEVQFNWYVDGVEVHNAKTKPREEQFNSTFRVVSVLTVVHQDWLNGKEYKCKVSNKGLPAPIEKTISKTKGQPREPQVYTLPPSREEMTKNQVSLTCLVKGFYPSDIAVEWESNGQPENNYKTTPPMLDSDGSFFLYSKLTVDKSRWQQGNVFSCSVMHEALHNHYTQKSLSLSPGKGGGGSGGGGSEVQLLESGGGLVQPGGSLRLSCAASGFTFSDYYMSWVRQAPGKGLEWVSAIYSGGGSIYYADSVKGRFTISRDNSKNTLYLQMNSLRAEDTAVYYCARDVQWNKAPRFDYWGQGTLVTVSSGGGGSGGGGSGGGGSQSVLTQPPSASGAPGQRVTISCSGSSSNIGSNDVSWYQQLPGTAPKLLIYADSNRPSGVPDRFSGSKSGTSASLAISGLRSEDEADYYCGSWDYSLSGYVFGGGTKLTVLG
light: B1 light

Kd (VEGF (R&D systems)): 1 nM | Kd [1]: 0.3 nM
B4: MV-19 anti-c-Met/anti-VEGF bispecific antibody (bispecific antibody, human IgG2, kappa)
heavy: EVQLVESGGGLVQPGGSLRLSCAASGFTFTDYYMSWVRQAPGKGLEWLGFIRNKANGYTTEYSASVKGRFTISRDNSKNTLYLQMNSLRAEDTAVYYCARDNWFAYWGQGTLVTVSSASTKGPSVFPLAPCSRSTSESTAALGCLVKDYFPEPVTVSWNSGALTSGVHTFPAVLQSSGLYSLSSVVTVPSSNFGTQTYTCNVDHKPSNTKVDKTVERKCCVECPPCPAPPVAGPSVFLFPPKPKDTLMISRTPEVTCVVVDVSHEDPEVQFNWYVDGVEVHNAKTKPREEQFNSTFRVVSVLTVVHQDWLNGKEYKCKVSNKGLPAPIEKTISKTKGQPREPQVYTLPPSREEMTKNQVSLTCLVKGFYPSDIAVEWESNGQPENNYKTTPPMLDSDGSFFLYSKLTVDKSRWQQGNVFSCSVMHEALHNHYTQKSLSLSPGKGGGGSGGGGSEVQLLESGGGLVQPGGSLRLSCAASGFTFSSYSMSWVRQAPGKGLEWVSGISHGGGNKYYADSVKGRFTISRDNSKNTLYLQMNSLRAEDTAVYYCARDLRANNDTGFDYWGQGTLVTVSSGGGGSGGGGSGGGGTQSVLTQPPSSSGTPGQRVTISCTGSSSNIGSNAVTWYQQLPGTAPKLLIYDDNHRPSGVPDRFSGSKSGTSASLAISGLRSEDEADYYCGAWDYSLNAYVFGGGTKLTVLG
light: B1 light

Kd (VEGF (R&D systems)): 4.43 nM | Kd [1]: 0.04 nM
B7: MV-20 anti-c-Met/anti-VEGF bispecific antibody (bispecific antibody, human IgG2, kappa)
heavy: EVQLVESGGGLVQPGGSLRLSCAASGFTFTDYYMSWVRQAPGKGLEWLGFIRNKANGYTTEYSASVKGRFTISRDNSKNTLYLQMNSLRAEDTAVYYCARDNWFAYWGQGTLVTVSSASTKGPSVFPLAPCSRSTSESTAALGCLVKDYFPEPVTVSWNSGALTSGVHTFPAVLQSSGLYSLSSVVTVPSSNFGTQTYTCNVDHKPSNTKVDKTVERKCCVECPPCPAPPVAGPSVFLFPPKPKDTLMISRTPEVTCVVVDVSHEDPEVQFNWYVDGVEVHNAKTKPREEQFNSTFRVVSVLTVVHQDWLNGKEYKCKVSNKGLPAPIEKTISKTKGQPREPQVYTLPPSREEMTKNQVSLTCLVKGFYPSDIAVEWESNGQPENNYKTTPPMLDSDGSFFLYSKLTVDKSRWQQGNVFSCSVMHEALHNHYTQKSLSLSPGKGGGGSGGGGSEVQLLESGGGLVQPGGSLRLSCAASGFTFSNYDMSWVRQAPGKGLEWVSLISHGGGNIYYADSVKGRFTISRDNSKNTLYLQMNSLRAEDTAVYYCARVPVMCTNHWCSYANGMDVWGQGTLVTVSSGGGGSGGGGSGGGGSQSVLTQPPSASGTPGQRVIISCSASSSNIGSNAVYWYQQLPGTAPKLLIYSDNQRPSGVPDRFSGSKSGTSASLAISGLRSEDEADYYCGSWDYSLSAYVFGGGTKLTVLG
light: B1 light
